From patent US20210252150A1 come the findings set out here.

The term EC50 denotes the concentration that produces a half-maximal response.

Assay [1] concerns the target HA of A/California/04/2009 (H1N1) (influenza A virus (H1N1)) (UniProt P26140). Description: ELISA, recombinant HA.
Assay [2] deals with HA of A/duck/Czechoslovakia/1956 (H4). Nature of the assay: ELISA, recombinant HA.
In assay [3] the target is HA of A/Hong Kong/1/1968 (H3N2) (influenza A virus (H3N2)) (UniProt Q91MA7).
Assay [4] addresses HA of A/Hong Kong/1073/99 (H9) (influenza A virus (H9)).
The target in assay [5] is HA of A/Indonesia/5/2005 (H5N1) (influenza A virus (H5N1)).
Assay [6] deals with HA of A/Netherlands/219/2003 (H7N7) (influenza A virus (H7N7)).
Assay [7] deals with HA of A/Shanghai/2/2013 (H7N9) (influenza A virus (H7N9)).
In assay [8] the target is HA of A/Singapore/1/1957 (H2) (influenza A virus (H2)) (UniProt Q67333).
Assay [9] concerns the target HA of A/mallard duck/Astrakhan/263/1982 (H14N5) (influenza A virus (H14N5)).
The target of assay [10] is HA of A/shearwater/Western Australia/2576/1979 (H15N9) (influenza A virus (H15N9)).

For the substance CR6261 (antibody), the values for the EC50 in [1] and in [2] were 0.012 mg/L and 0.023 mg/L, respectively.
With “rFluA-20 heavy chain mutant C101A (antibody)”, the EC50 in assay [3] stood at 0.13 mg/L; in [6], 0.17 mg/L; in assay [8] it was 0.44 mg/L; in assay [10] it was 0.11 mg/L. Also, the EC50 fold over wild-type rFluA-20 in [4], in [5], in assay [7] and in assay [9] was more than 100 fold in each case.
With “rFluA-20 light chain mutant N53A (antibody)”, the EC50 in assay [4] was determined as 0.17 mg/L; in assay [6], 0.05 mg/L; in assay [7] it was 0.87 mg/L; in [10], 0.06 mg/L. The EC50 fold over wild-type rFluA-20 in [5] and in assay [9] was more than 100 fold each time.
“rFluA-20 light chain mutant Q55A (antibody)” showed an EC50 in assay [6] of 0.17 mg/L. Moreover, in [10], the EC50 fold over wild-type rFluA-20 is more than 100 fold.
In turn, “rFluA-20 light chain mutant Y49A (antibody)” had an EC50 fold over wild-type rFluA-20 in [6] of more than 100 fold.
